The text below walks through data of publication PMC2709577.

Where a chain is given by its changes, count along the chain named.

Sequences and labels used below:
B1: 105 bp cognate TGAATTC (dsDNA)
DNA 1: TAAGTTGGGTAACGCCAGGGTTTTCCCAGTCACGACGTTGTAAAACGACGGCCAGTGAATTCGAGCTCGGTACCCGGGGATCCTCTAGAGTCGACCTGCAGGCAT
DNA 2: ATGCCTGCAGGTCGACTCTAGAGGATCCCCGGGTACCGAGCTCGAATTCACTGGCCGTCGTTTTACAACGTCGTGACTGGGAAAACCCTGGCGTTACCCAACTTA
B2: 105 bp AGAATTC (5' flank T to A) (dsDNA)
DNA 1: B1 DNA 1 with T56A
DNA 2: B1 DNA 2 with A50T
B3: 105 bp TTAATTC (first base G to T) (dsDNA)
DNA 1: B1 DNA 1 with G57T
DNA 2: B1 DNA 2 with C49A
B4: 105 bp TGACTTC (third base A to C) (dsDNA)
DNA 1: B1 DNA 1 with A59C
DNA 2: B1 DNA 2 with T47G
B5: 105 bp TGCATTC (second base A to C) (dsDNA)
DNA 1: B1 DNA 1 with A58C
DNA 2: B1 DNA 2 with T48G

In one data set the target is T1, EcoRI restriction endonuclease (UniProt P00642 1-277). Put plainly: nanopore rupture with qPCR. (Quantitative PCR measures a nucleic acid by following its amplification.)
T1 sequence (P00642 whole entry): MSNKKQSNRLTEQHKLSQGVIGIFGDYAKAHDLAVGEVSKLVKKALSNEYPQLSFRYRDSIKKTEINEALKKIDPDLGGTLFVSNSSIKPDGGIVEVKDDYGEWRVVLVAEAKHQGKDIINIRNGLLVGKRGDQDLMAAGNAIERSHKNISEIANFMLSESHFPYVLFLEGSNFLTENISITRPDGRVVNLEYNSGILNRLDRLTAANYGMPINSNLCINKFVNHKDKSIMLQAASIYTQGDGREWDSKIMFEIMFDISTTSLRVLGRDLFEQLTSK
Consider B1, for which the binding signal is 2.09 ± 0.06 V (threshold voltage).
On the same count and under the same terms, for B2 the value was 1.84 ± 0.05 V (threshold voltage); for B3, 1.16 ± 0.03 V (threshold voltage).
With B4, the binding signal is 1.02 ± 0.08 V (threshold voltage).
On to B5, for which the binding signal is 0.93 ± 0.06 V (threshold voltage).

For the next data set, the target named is T1, EcoRI restriction endonuclease. Put plainly: nanopore rupture with qPCR. The source holds these as a separate data set.
For the molecule B1, the binding signal was 2.16 ± 0.08 V (threshold voltage).
Same read-out and setting: the value for B2 was 1.62 ± 0.07 V (threshold voltage); that for B3 was 1.17 ± 0.09 V (threshold voltage).
Still for that read-out and setting: the value for B4 was 1.11 ± 0.08 V (threshold voltage); that for B5 was 0.87 ± 0.06 V (threshold voltage).

The target is the same in the next data set. Put plainly: nanopore rupture with qPCR. This is another data set of the same source.
On to B1, for which the binding signal was 2.08 ± 0.03 V (threshold voltage).
The same measure, in the same setting: the value for B2 was 1.72 ± 0.05 V (threshold voltage).
Consider B3, for which the binding signal was 1.18 ± 0.06 V (threshold voltage).
Regarding B4, the binding signal was 1.08 ± 0.04 V (threshold voltage).
B5: the binding signal was 0.93 ± 0.05 V (threshold voltage).
